Source: PMC10397247
Each block holds one binder with its values, some of them ahead of it.

Experiments:
4H2729-bA = target: T1, 4H2729-bA; test: two-hybrid library CCNG1;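 note: natural log of median RNA to DNA barcode read ratio; higher means stronger binding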
T1 chain: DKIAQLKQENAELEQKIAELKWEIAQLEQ

4H3112-bA = target: T2, 4H3112-bA; test: two-hybrid library CCNG1;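 note: natural log of median RNA to DNA barcode read ratio; higher means stronger binding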
T2 chain: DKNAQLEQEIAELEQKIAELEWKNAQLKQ

4H3185-bA = target: T3, 4H3185-bA; test: two-hybrid library CCNG1;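 note: natural log of median RNA to DNA barcode read ratio; higher means stronger binding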
T3 chain: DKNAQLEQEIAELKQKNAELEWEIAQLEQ

4H331-bA = target: T4, 4H331-bA; test: two-hybrid library CCNG1;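 note: natural log of median RNA to DNA barcode read ratio; higher means stronger binding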
T4 chain: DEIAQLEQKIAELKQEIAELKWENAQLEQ

4H3354-bA = target: T5, 4H3354-bA; test: two-hybrid library CCNG1;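 note: natural log of median RNA to DNA barcode read ratio; higher means stronger binding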
T5 chain: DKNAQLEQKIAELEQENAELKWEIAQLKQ

4H338-bA = target: T6, 4H338-bA; test: two-hybrid library CCNG1;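 note: natural log of median RNA to DNA barcode read ratio; higher means stronger binding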
T6 chain: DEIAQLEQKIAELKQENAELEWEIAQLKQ

4H3427-bA = target: T7, 4H3427-bA; test: two-hybrid library CCNG1
T7 chain: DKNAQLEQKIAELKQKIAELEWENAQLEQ

4H3782-bA = target: T8, 4H3782-bA; test: two-hybrid library CCNG1
T8 chain: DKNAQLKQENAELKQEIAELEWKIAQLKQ

4H3855-bA = target: T9, 4H3855-bA; test: two-hybrid library CCNG1
T9 chain: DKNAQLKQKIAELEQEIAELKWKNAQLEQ

4H4001-bA = target: T10, 4H4001-bA; test: two-hybrid library CCNG1
T10 chain: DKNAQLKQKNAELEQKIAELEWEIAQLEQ

4H454-bA = target: T11, 4H454-bA; test: two-hybrid library CCNG1
T11 chain: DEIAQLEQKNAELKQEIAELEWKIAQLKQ

4H568-bA = target: T12, 4H568-bA; test: two-hybrid library CCNG1
T12 chain: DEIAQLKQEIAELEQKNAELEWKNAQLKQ

4H607-bA = target: T13, 4H607-bA; test: two-hybrid library CCNG1
T13 chain: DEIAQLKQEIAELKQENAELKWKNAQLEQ

4H687-bA = target: T14, 4H687-bA; test: two-hybrid library CCNG1
T14 chain: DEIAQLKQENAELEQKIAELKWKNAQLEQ

4H717-bA = target: T15, 4H717-bA; test: two-hybrid library CCNG1
T15 chain: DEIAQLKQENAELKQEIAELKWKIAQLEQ

4H72-bA = target: T16, 4H72-bA; test: two-hybrid library CCNG1
T16 chain: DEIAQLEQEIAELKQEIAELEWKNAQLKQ

4H754-bA = target: T17, 4H754-bA; test: two-hybrid library CCNG1
T17 chain: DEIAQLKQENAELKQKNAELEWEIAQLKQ

4H797-bA = target: T18, 4H797-bA; test: two-hybrid library CCNG1
T18 chain: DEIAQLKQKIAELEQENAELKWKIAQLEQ

4H883-bA = target: T19, 4H883-bA; test: two-hybrid library CCNG1
T19 chain: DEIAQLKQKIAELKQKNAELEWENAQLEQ

4H908-bA = target: T20, 4H908-bA; test: two-hybrid library CCNG1; settings: mean of both orientations
T20 chain: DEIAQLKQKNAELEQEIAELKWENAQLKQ

4H918-bA = target: T21, 4H918-bA; test: two-hybrid library CCNG1
T21 chain: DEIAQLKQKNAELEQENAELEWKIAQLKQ

4H953-bA = target: T22, 4H953-bA; test: two-hybrid library CCNG1
T22 chain: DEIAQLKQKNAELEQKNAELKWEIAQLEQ

4H967-bA = target: T23, 4H967-bA; test: two-hybrid library CCNG1
T23 chain: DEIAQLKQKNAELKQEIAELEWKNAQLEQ

4H3175-bH = target: T24, 4H3175-bH; test: two-hybrid library CCNG1
T24 chain: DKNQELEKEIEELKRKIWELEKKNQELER

4H3277-bH = target: T25, 4H3277-bH; test: two-hybrid library CCNG1
T25 chain: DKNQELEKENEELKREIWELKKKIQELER

4H3298-bH = target: T26, 4H3298-bH; test: two-hybrid library CCNG1
T26 chain: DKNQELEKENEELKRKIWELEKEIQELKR

4H3462-bH = target: T27, 4H3462-bH; test: two-hybrid library CCNG1
T27 chain: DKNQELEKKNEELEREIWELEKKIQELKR

4H3497-bH = target: T28, 4H3497-bH; test: two-hybrid library CCNG1
T28 chain: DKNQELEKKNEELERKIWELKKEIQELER

4H3613-bH = target: T29, 4H3613-bH; test: two-hybrid library CCNG1
T29 chain: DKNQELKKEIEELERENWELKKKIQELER

4H3628-bH = target: T30, 4H3628-bH; test: two-hybrid library CCNG1
T30 chain: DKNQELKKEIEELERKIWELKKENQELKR

4H3926-bH = target: T31, 4H3926-bH; test: two-hybrid library CCNG1
T31 chain: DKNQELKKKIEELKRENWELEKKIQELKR

4H591-bH = target: T32, 4H591-bH; test: two-hybrid library CCNG1
T32 chain: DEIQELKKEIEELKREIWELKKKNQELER

4H626-bH = target: T33, 4H626-bH; test: two-hybrid library CCNG1
T33 chain: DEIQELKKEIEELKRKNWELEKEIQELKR

4H906-bH = target: T34, 4H906-bH; test: two-hybrid library CCNG1
T34 chain: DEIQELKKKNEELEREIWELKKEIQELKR

4H918-bH = target: T35, 4H918-bH; test: two-hybrid library CCNG1
T35 chain: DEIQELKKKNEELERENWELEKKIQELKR

APC2543-AA = target: T36, APC2543-AA; test: two-hybrid library CCmax
T36 chain: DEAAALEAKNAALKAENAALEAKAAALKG

APC2556-AA = target: T37, APC2556-AA; test: two-hybrid library CCmax; settings: mean of both orientations
T37 chain: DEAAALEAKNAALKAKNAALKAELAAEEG

APC2724-AA = target: T38, APC2724-AA; test: two-hybrid library CCmax
T38 chain: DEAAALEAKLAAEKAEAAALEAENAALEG

APC2811-AA = target: T39, APC2811-AA; test: two-hybrid library CCmax; settings: mean of both orientations
T39 chain: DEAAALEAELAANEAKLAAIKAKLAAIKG

APC2981-AA = target: T40, APC2981-AA; test: two-hybrid library CCmax; settings: mean of both orientations
T40 chain: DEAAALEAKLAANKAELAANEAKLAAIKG

APC3265-AA = target: T41, APC3265-AA; test: two-hybrid library CCmax; settings: mean of both orientations
T41 chain: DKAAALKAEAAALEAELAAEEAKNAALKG

APC3323-AA = target: T42, APC3323-AA; test: two-hybrid library CCmax; settings: mean of both orientations
T42 chain: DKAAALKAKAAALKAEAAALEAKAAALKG

APC3354-AA = target: T43, APC3354-AA; test: two-hybrid library CCmax; settings: mean of both orientations
T43 chain: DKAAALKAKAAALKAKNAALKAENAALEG

APC3881-AA = target: T44, APC3881-AA; test: two-hybrid library CCmax; settings: mean of both orientations
T44 chain: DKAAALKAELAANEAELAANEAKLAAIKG

APC4100-AA = target: T45, APC4100-AA; test: two-hybrid library CCmax; settings: mean of both orientations
T45 chain: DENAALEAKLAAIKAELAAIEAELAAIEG

APC4336-AA = target: T46, APC4336-AA; test: two-hybrid library CCmax; settings: mean of both orientations
T46 chain: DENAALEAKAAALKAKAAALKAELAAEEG

APC5009-AA = target: T47, APC5009-AA; test: two-hybrid library CCmax; settings: mean of both orientations
T47 chain: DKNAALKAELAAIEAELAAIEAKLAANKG

APC542-AA = target: T48, APC542-AA; test: two-hybrid library CCmax; settings: mean of both orientations
T48 chain: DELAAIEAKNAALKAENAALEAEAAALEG

APC5531-AA = target: T49, APC5531-AA; test: two-hybrid library CCmax; settings: mean of both orientations
T49 chain: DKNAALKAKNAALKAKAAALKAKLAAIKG

APC6088-AA = target: T50, APC6088-AA; test: two-hybrid library CCmax; settings: mean of both orientations
T50 chain: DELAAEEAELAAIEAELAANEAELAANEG

APC7524-AA = target: T51, APC7524-AA; test: two-hybrid library CCmax; settings: mean of both orientations
T51 chain: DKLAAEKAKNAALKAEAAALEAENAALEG

APC8401-AA = target: T52, APC8401-AA; test: two-hybrid library CCmax; settings: mean of both orientations
T52 chain: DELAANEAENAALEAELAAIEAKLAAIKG

APC8516-AA = target: T53, APC8516-AA; test: two-hybrid library CCmax; settings: mean of both orientations
T53 chain: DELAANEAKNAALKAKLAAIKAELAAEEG

APC9141-AA = target: T54, APC9141-AA; test: two-hybrid library CCmax; settings: mean of both orientations
T54 chain: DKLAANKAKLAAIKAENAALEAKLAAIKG

APC9182-AA = target: T55, APC9182-AA; test: two-hybrid library CCmax; settings: mean of both orientations
T55 chain: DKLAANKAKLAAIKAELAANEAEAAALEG

APC9291-AA = target: T56, APC9291-AA; test: two-hybrid library CCmax; settings: mean of both orientations
T56 chain: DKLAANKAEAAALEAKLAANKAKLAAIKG

APC9806-AA = target: T57, APC9806-AA; test: two-hybrid library CCmax; settings: mean of both orientations
T57 chain: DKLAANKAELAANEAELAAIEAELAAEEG

O2-bP = target: T58, O2-bP; test: two-hybrid library CCNG1
T58 chain: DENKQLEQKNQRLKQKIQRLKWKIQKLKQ

O3-bP = target: T59, O3-bP; test: two-hybrid library CCNG1
T59 chain: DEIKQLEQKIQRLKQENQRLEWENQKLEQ

O4-bP = target: T60, O4-bP; test: two-hybrid library CCNG1
T60 chain: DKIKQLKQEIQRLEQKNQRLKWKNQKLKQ

O5-bP = target: T61, O5-bP; test: two-hybrid library CCNG1
T61 chain: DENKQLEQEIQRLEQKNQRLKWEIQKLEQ

O6-bP = target: T62, O6-bP; test: two-hybrid library CCNG1
T62 chain: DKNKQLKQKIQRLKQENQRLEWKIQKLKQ

O7-bP = target: T63, O7-bP; test: two-hybrid library CCNG1
T63 chain: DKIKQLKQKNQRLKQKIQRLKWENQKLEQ

O8-bP = target: T64, O8-bP; test: two-hybrid library CCNG1
T64 chain: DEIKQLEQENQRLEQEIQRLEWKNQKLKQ

O9-bP = target: T65, O9-bP; test: two-hybrid library CCNG1
T65 chain: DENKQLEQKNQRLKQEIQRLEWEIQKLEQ

interaction score (4H3175-bH): 0.103
interaction score (4H3277-bH): -0.0103
interaction score (4H3298-bH): -0.132
interaction score (4H3462-bH): 0.891
interaction score (4H3497-bH): 0.402
interaction score (4H3613-bH): -0.475
interaction score (4H3628-bH): -0.799
interaction score (4H3926-bH): -0.189
interaction score (4H591-bH): -2.15
interaction score (4H626-bH): -1.62
interaction score (4H906-bH): 0.787
interaction score (4H918-bH): -1.69
B2: 4H3175-bH (peptide)
chain: DKNQELEKEIEELKRKIWELEKKNQELER

interaction score (O2-bP): -1.2
interaction score (O3-bP): -0.635
interaction score (O4-bP): -0.811
interaction score (O5-bP): -0.804
interaction score (O6-bP): -0.766
interaction score (O7-bP): -0.723
interaction score (O8-bP): -1.21
interaction score (O9-bP): -1.4
B4: O2-bP (peptide)
chain: DENKQLEQKNQRLKQKIQRLKWKIQKLKQ

Second part, the binder before the results:

B1: 4H2729-bA (peptide)
chain: DKIAQLKQENAELEQKIAELKWEIAQLEQ
interaction score (4H2729-bA): -0.254
interaction score (4H3112-bA): -0.141
interaction score (4H3185-bA): -0.331
interaction score (4H331-bA): -1.18
interaction score (4H3354-bA): -0.919
interaction score (4H338-bA): -0.713
interaction score (4H3427-bA): -0.88
interaction score (4H3782-bA): 0.712
interaction score (4H3855-bA): -0.46
interaction score (4H4001-bA): -0.575
interaction score (4H454-bA): 1.84
interaction score (4H568-bA): -1.78
interaction score (4H607-bA): -1.29
interaction score (4H687-bA): -1.51
interaction score (4H717-bA): -1.35
interaction score (4H72-bA): -0.336
interaction score (4H754-bA): -0.709
interaction score (4H797-bA): -1.21
interaction score (4H883-bA): -1.72
interaction score (4H908-bA): -0.401
interaction score (4H918-bA): 1.73
interaction score (4H953-bA): -1.01
interaction score (4H967-bA): 0.0132

B3: APC2543-AA (peptide)
chain: DEAAALEAKNAALKAENAALEAKAAALKG
interaction score (APC2543-AA): -1.71
interaction score (APC2556-AA): -1.67
interaction score (APC2724-AA): -1.16
interaction score (APC2811-AA): -1.54
interaction score (APC2981-AA): -1.4
interaction score (APC3265-AA): -1.58
interaction score (APC3323-AA): -1.36
interaction score (APC3354-AA): -1.72
interaction score (APC3881-AA): -1.22
interaction score (APC4100-AA): -1.65
interaction score (APC4336-AA): -1.73
interaction score (APC5009-AA): -1.04
interaction score (APC542-AA): -1.65
interaction score (APC5531-AA): -1.8
interaction score (APC6088-AA): -1.87
interaction score (APC7524-AA): -1.63
interaction score (APC8401-AA): -1.23
interaction score (APC8516-AA): -1.7
interaction score (APC9141-AA): -1.6
interaction score (APC9182-AA): -1.84
interaction score (APC9291-AA): -1.67
interaction score (APC9806-AA): -1.56
